In a protein production outcome set (Wang et al. 2014):

Assay: label from the status in PepcDB records

With “MAREFKRSDRVAQEIQKEIAVILQREVKDPRIGMVTVSDVEVSSDLSYAKIFVTFLFDHDEMAIEQGMKGLEKASPYIRSLLGKAMRLRIVPEIRFIYDQSLVEGMRMSNLVTNVVREDEKKHVEESN” the protein production was “not failed”.
With “MSIEVIAVRLTKGMDLKLSLAKLVAEHDIKAGSIASCVGCISDLNLRLAGAESTLTKREPFEIVSVMGTLTPEHQHVHISVSDREGRVWGGHLLEGTVIDTTAELIIHSYSELEFTRAMDDSTGYTELQVNPSKLEHHHHHH” the protein production was “not failed”.
With “MKPRKKSVQPIGLKDITIVDDAKMKKAITAAALGNAMEWFDFGVYGFVAYALGKVFFPNADPSVQMIAALATFSVPFLIRPLGGLFFGALGDRFGRQKILAATIVIMSLSTFAIGLIPSYASIGIWAPILLLLAKMAQGFSVGGEYTGASIFVAEYAPDRKRGFLGSWLDFGSIAGFVLGAGVVVLISTVLGEEKFLDWGWRLPFFLALPLGIIGLYLRHALEETPAFQQHVDKLEQGDREGLASGPKVSFKEVATQHWRSLVTCIGVVIATNVTYYMLLTYMPSYLSHNLHYSEDHGVLIIIAIMVGMLFVQPIIGLLSDKFGRRPFIIVGSVGLLALAIPAFMLINSGVLGLIFAGLLIIAVLLNFFIGVMASTLPAMFPTHIRYSALASAFNISVLIAGLTPTLAAWLVETTNDLYMPAYYLMVIAAVGLVTGLTMKETANKPLRGAAPAASDIEEARELLQEHHDNIEQKIEDIDAQIAELEAKREKLALQHPRIE” the protein production was “not failed”.
With “MKDPRDFVPEDLSDLETAMLEMAEKDIRKAYTITDKQERYAALDALKTEIINKFMPETEEDCKFSVDQIATVFKQLQAKIVRSNILDTKKRIDGRDLSTVRPIQSEVGILPRTHGSALFTRGETQAIVVATLGTGEDEQYIDSLTGLEHHHHHH” the protein production was “not failed”.
In the case of “SPESLYLLWGPQMQFFFNDAYRPVLGPRLANALGQTIQTLWADAWPDVQPMVEQAFLGYSCRHEDLPVNMQRYPGEELTWWSFSMSPVYDEDDEQVLGVLCHTVETTDRVLLARHARQTEAH”, the protein production is reported as “failed”.
With “KVDPSDFSDVLIAHTVMKPFPDAPTALYQIKAKGYETVLMTNHSRDLIQSNVINLDHEFDMIITAEDVQTYKPNQKFFDYVNDQLGNDVEKHVHVAVDEVKDLKPAQDAGWNVIKIDRKSEDAS” the protein production was “failed”.
In the case of “MKPADLTNADRIALELGHAGRNAIPYLDDDRNADRPFTLNTYRPYGYTPDRPVVVVQHGVLRNGADYRDFWIPAADRHKLLIVAPTFSDEIWPGVESYNNGRAFTAAGNPRHVDGWTYALVARVLANIRAAEIADCEQVYLFGHSAGGQFVHRLMSSQPHAPFHAVTAANPGWYTLPTFEHRFPEGLDGVGLTEDHLARLLAYPMTILAGDQDIATDDPNLPSEPAALRQGPHRYARARHYYEAGRRAAAQRGLPFGWQLQVVPGIGHDGQAMSQVCASLWFDGRMPDAAELARLAGSQSA”, the protein production is reported as “failed”.
For “MQTQIKVRGYHLDVYQHVNNARYLEFLEEARWDGLENSDSFQWMTAHNIAFVVVNININYRRPAVLSDLLTITSQLQQLNGKSGILSQVITLEPEGQVVADALITFVCIDLKTQKALALEGELREKLEQMVK”, the protein production was “not failed”.
With “MQRGSRQLYLGDPATDKLQVPEMPMQVLTAFVPGMEVAISAISSYLSTKKMSEGGAGPLLQKRRPNTRKLWSEGRVQPRPFCVLSGLAPPRSRPGPWGPFKAASWPAGTCFAPSDAAEVAASPLRRRGDCWEGRRDGGSETSSRSRIRVKRDRSKSQSRTKAEGAGRRGPVGPGDPVRPDGEKRLQARRPPAPPLASTDRKTMATMVLPREEKLSQDEIVLGTKAVIQGLETLRGEHRALLAPLASHEAGEAEPGSQERCLLLRRSLEAIELGLGEAQVILALSSHLGAVESEKQKLRAQVRRLVQENQWLREELAGTQQKLQRSEQAVAQLEEEKQHLLFMSQIRKLDEDASPNEEKGDVPKDSLDDLFPNEDEQSPAPSPGGGDVAAQHGGYEIPARLRTLHNLVIQYASQGRYEVAVPLCKQALEDLEKTSGHDHPDVATMLNILALVYRDQNKYKDAAHLLNDALAIREKTLGKDHPAVAATLNNLAVLYGKRGKYKEAEPLCKRALEIREKVLGKFHPDVAKQLSNLALLCQNQGKAEEVEYYYRRALEIYATRLGPDDPNVAKTKNNLASCYLKQGKYQDAETLYKEILTRAHEKEFGSVNGENKPIWMHAEEREESKDKRRDSAPYGEYGSWYKACKVDSPTVNTTLRSLGALYRRQGKLEAAHTLEDCASRSRKQGLDPASQTKVVELLKDGSGGRGDRRGSRDVAGGAGPRSESDLEESGPAAEWSGDGSGSLRRSGSFGKLRDALRRSSEMLVRKLQGGGPQEPPNSRMKRASSLNFLNKSVEEPVQPGGTGLSDSRTLSSSSMDLSRRSSLVG” the protein production was “failed”.
In the case of “MVLVTSVRDYINRMLQDISGMKVLILDSETVSNVSIVYSQSELLQKEVFLVEMIDSISVSKESMSHLKAVYFIRPTSDNIQKLRYQLANPRFGEYHLFFSNLLKDTQIHILADSDEQEVVQQVQEYYADFVSGDPYHFTLNMASNHLYMIPAVVDPSGLQRFSDRVVDGIAAVFLALKRRPVIRYQRTSDTAKRIAHETAKLMYQHESALFDFRRTESSPLLLVIDRRDDPVTPLLNQWTYQAMVHELIGLQDNKVDLKSIGSLPKDQQVEVVLSSEQDAFFKSNMYENFGDIGMNIKRMVDDFQQVAKSNQNIQTVEDMARFVDNYPEYKKMQGNVSKHVTLVTEMSKLVEARKLMTVSQTEQDLACNGGQGAAYEAVTDLLNNESVSDIDRLRLVMLYALRYEKENPVQLMQLFNKLASRSPKYKPGLVQFLLKQAGVEKRTGDLFGNRDLLNIARNMARGLKGVENVYTQHQPLLFQTMESITRGRLRDVDYPFVGDHFQQGRPQEVVIFMVGGTTYEESRSVALQNATNSGVRFILGGTAVLNSKRFLKDLEEAQRISRSGSHMV”, the protein production is reported as “failed”.
With “MTALFFENFAPGHFGRYGPRRVTREEIIAFASEYDPQPMHLDDHAANASMLKGMSGSGWHLSSLMMRMMYDGFIKDTASLGSPGVDEMRWMSPLRPGDDLLLDVEVIEARVSKSRPETGIVTFKCYVRNGHGQMLSEMVSPIIVKRRDAD” the protein production was “failed”.
For “MEETPKTTLPHKFLKNILMLDVLKVRIYPNKEQEISLAKSFGCSRFVWNFYLNKTNTQYEETGKGMTYCQMAKDLTQLKKLSDYEWLQEPTAAVLQQSLKNLESAFKNFFSKRAGFPKFKSKHSKQSIRFPESCSIKDSGLKLPKLGIVKVSLSKKINSKIKSVTVSKTSTGKYFAALLFEAKDLTNNKQGKISGIDLGLTSLITVFDGETCYKVDPIKPTRKYAKRLRIRQKALSRKVKGSNNRRKAIKVVAKVHEKISNTRQDFLHKLSRKLVDDNQIIVAENLCVKGLARTKLAKSIHDAGFGMLLNFISYKLEREGGKFVQVDRFFPSSKLCSCCGHKNNLLNLSIREWICPSCQTTHDRDENASRNLRTEGIRILETNTAGHAEIQACGETVRLVGTCAKKRVSEKQESPATLLCG”, the protein production was “failed”.
For “SYVQDYRSPFIASVSDQHGVVYITENKNKTVVIPCLGSISNLNVSLCARYPEKRFVPDGNRISWDSKKGFTIPSYMISYAGMVFCEAKINDESYQSIMYIVVVVGYRIYDVVLSPSHGIELSVGEKLVLNCTARTELNVGIDFNWEYPSSKHQHKKLVNRDLKTQSGSEMKKFLSTLTIDGVTRSDQGLYTCAASSGLMTKKNSTFVRVHEKPFVAFGSG”, the protein production was “not failed”.
For “MTLQETLNSEYQISFEEAQATAKIVDDLAEAEQKLKNLERQIKALGPINLDAIAQFDEVNERFTFLSSQKDDLLEAKNLLLSTIDDMNDEVKIRFKTSFDAIRESFKTTFAQMFVSGLADLELTSDNLLEAGVEIKVQPPGKKLSSLNLMSGGEKALTALALIFAILRVRTVPFVVLDEVEAALDEANVKRFGDYMNHFDNSNQFIVVTHRRGTMAAAGSMYGVTMADAGVSKMISVKLDSAIN”, the protein production was “failed”.
With “MWSWDVECDTCAICRVQVMDACLRCQAENKQEDCVVVWGECNHSFHNCCMSLWVKQNNRCPLCQQDWVVQRIGK” the protein production was “not failed”.
In the case of “MSLKFENTGLENQTVELSRLDDIMERLGFVRAAQWDYERVTYDRKYVVKEGTYYLRVQGYAIEGNVDSRYALIKLLTPIMGKHYYPHGVEYGDDEHFPSSLVSQCQNVLAQVKSELEKIKEEGHHHHHH”, the protein production is reported as “not failed”.
